Data as given in PMC5148741 (Journal of the American Chemical Society, 2016).
Ends that are not written are not given here. * marks the point of attachment. FITC = O=C1OC2(c3ccc(O)cc3Oc3cc(O)ccc32)c2ccc(NC(=S)*)cc21

target: TbtF; test: fluorescence polarisation

IC50 [nM]	Binder
1580 ± 360	MDANDLPMDVFELADSGVAVESLTAGHGMTEVGASCNCFCYICCSCSSA [TbtA L(−32)A]
510 ± 60	MDLNDLPMDVFELADSGVAVESLAAGHGMTEVGASCNCFCYICCSCSSA [TbtA T(−11)A]
1270 ± 150	MDLNDLPMDVFALADSGVAVESLTAGHGMTEVGASCNCFCYICCSCSSA [TbtA E(−23)A]
530 ± 30	MDLNDLPMDVFELADSGVAVESLTAGHGMTAVGASCNCFCYICCSCSSA [TbtA E(−4)A]
700 ± 40	MDLNDLPMDVFELADSGVAVESATAGHGMTEVGASCNCFCYICCSCSSA [TbtA L(−12)A]
1450 ± 460	MDLNDLPMDVFELAASGVAVESLTAGHGMTEVGASCNCFCYICCSCSSA [TbtA D(−20)A]
1370 ± 150	MDLNDLPMDVFELADSGVAVASLTAGHGMTEVGASCNCFCYICCSCSSA [TbtA E(−14)A]
450 ± 30	MDLNDLPMDVFELADSGVAVESLTAGHGATEVGASCNCFCYICCSCSSA [TbtA M(−6)A]
1570 ± 460	MDLNDLPMDVFELADAGVAVESLTAGHGMTEVGASCNCFCYICCSCSSA [TbtA S(−19)A]
940 ± 200	MDLNALPMDVFELADSGVAVESLTAGHGMTEVGASCNCFCYICCSCSSA [TbtA D(−30)A]
570 ± 70	MDLADLPMDVFELADSGVAVESLTAGHGMTEVGASCNCFCYICCSCSSA [TbtA N(−31)A]
1410 ± 70	MDLNDLPMDVFELADSGVAVEALTAGHGMTEVGASCNCFCYICCSCSSA [TbtA S(−13)A]
630 ± 60	MDLNDLPMDVFELADSGVAAESLTAGHGMTEVGASCNCFCYICCSCSSA [TbtA V(−15)A]
670 ± 30	MDLNDLPMDVFELADSGVAVESLTAGHGMTEVGASCNCFCYICCSCSSA [TbtA wild-type]
620 ± 40	MDLNDLPMDAFELADSGVAVESLTAGHGMTEVGASCNCFCYICCSCSSA [TbtA V(−25)A]
> 10000	MDLNDAPMDVFELADSGVAVESLTAGHGMTEVGASCNCFCYICCSCSSA [TbtA L(−29)A]
8230 ± 1450	MDLNDLPMAVFELADSGVAVESLTAGHGMTEVGASCNCFCYICCSCSSA [TbtA D(−26)A]
980 ± 60	MDLNDLPMDVFELADSGVAVESLTAGAGMTEVGASCNCFCYICCSCSSA [TbtA H(−8)A]
580 ± 50	MDLNDLPMDVFELADSGVAVESLTAGHGMTEAGASCNCFCYICCSCSSA [TbtA V(−3)A]
490 ± 50	MDLNDLPMDVFELADSGAAVESLTAGHGMTEVGASCNCFCYICCSCSSA [TbtA V(−17)A]
990 ± 220	MALNDLPMDVFELADSGVAVESLTAGHGMTEVGASCNCFCYICCSCSSA [TbtA D(−33)A]
> 10000	MDLNDLPMDVAELADSGVAVESLTAGHGMTEVGASCNCFCYICCSCSSA [TbtA F(−24)A]

target: MBP-TbtD; test: fluorescence polarisation

IC50 [nM]	Binder
1710 ± 470	MDANDLPMDVFELADSGVAVESLTAGHGMTEVGASCNCFCYICCSCSSA [TbtA L(−32)A]
450 ± 20	MDLNDLPMDVFELADSGVAVESLAAGHGMTEVGASCNCFCYICCSCSSA [TbtA T(−11)A]
3460 ± 570	MDLNDLPMDVFALADSGVAVESLTAGHGMTEVGASCNCFCYICCSCSSA [TbtA E(−23)A]
700 ± 20	MDLNDLPMDVFELADSGVAVESLTAGHGMTAVGASCNCFCYICCSCSSA [TbtA E(−4)A]
3290 ± 680	MDLNDLPMDVFELADSGVAVESATAGHGMTEVGASCNCFCYICCSCSSA [TbtA L(−12)A]
4130 ± 1620	MDLNDLPMDVFELAASGVAVESLTAGHGMTEVGASCNCFCYICCSCSSA [TbtA D(−20)A]
4470 ± 960	MDLNDLPMDVFELADSGVAVASLTAGHGMTEVGASCNCFCYICCSCSSA [TbtA E(−14)A]
490 ± 70	MDLNDLPMDVFELADSGVAVESLTAGHGATEVGASCNCFCYICCSCSSA [TbtA M(−6)A]
910 ± 110	MDLNDLPMDVFELADAGVAVESLTAGHGMTEVGASCNCFCYICCSCSSA [TbtA S(−19)A]
7280 ± 770	MDLNALPMDVFELADSGVAVESLTAGHGMTEVGASCNCFCYICCSCSSA [TbtA D(−30)A]
1130 ± 80	MDLADLPMDVFELADSGVAVESLTAGHGMTEVGASCNCFCYICCSCSSA [TbtA N(−31)A]
2760 ± 180	MDLNDLPMDVFELADSGVAVEALTAGHGMTEVGASCNCFCYICCSCSSA [TbtA S(−13)A]
1060 ± 60	MDLNDLPMDVFELADSGVAAESLTAGHGMTEVGASCNCFCYICCSCSSA [TbtA V(−15)A]
610 ± 30	MDLNDLPMDVFELADSGVAVESLTAGHGMTEVGASCNCFCYICCSCSSA [TbtA wild-type]
2250 ± 200	MDLNDLPMDAFELADSGVAVESLTAGHGMTEVGASCNCFCYICCSCSSA [TbtA V(−25)A]
> 10000	MDLNDAPMDVFELADSGVAVESLTAGHGMTEVGASCNCFCYICCSCSSA [TbtA L(−29)A]
6000 ± 410	MDLNDLPMAVFELADSGVAVESLTAGHGMTEVGASCNCFCYICCSCSSA [TbtA D(−26)A]
3680 ± 310	MDLNDLPMDVFELADSGVAVESLTAGAGMTEVGASCNCFCYICCSCSSA [TbtA H(−8)A]
1350 ± 140	MDLNDLPMDVFELADSGVAVESLTAGHGMTEAGASCNCFCYICCSCSSA [TbtA V(−3)A]
690 ± 40	MDLNDLPMDVFELADSGAAVESLTAGHGMTEVGASCNCFCYICCSCSSA [TbtA V(−17)A]
720 ± 70	MALNDLPMDVFELADSGVAVESLTAGHGMTEVGASCNCFCYICCSCSSA [TbtA D(−33)A]
1510 ± 90	MDLNDLPMDVAELADSGVAVESLTAGHGMTEVGASCNCFCYICCSCSSA [TbtA F(−24)A]

target: maltose-binding protein (MBP) tagged TbtB; test: fluorescence polarisation

Kd [nM]	Binder
~20000	{FITC}-MDLNDLPMDVFELADSGVAVESLTAGHGMTEVGA [synthetic TbtA leader peptide derivatized with fluorescein isothiocyanate (FITC) at the N-terminus]

target: MBP-TbtD; test: fluorescence polarisation; remark: another data set of the same source

Kd [nM]	Binder
~140	{FITC}-MDLNDLPMDVFELADSGVAVESLTAGHGMTEVGA [synthetic TbtA leader peptide derivatized with fluorescein isothiocyanate (FITC) at the N-terminus]
